Measured values: patent US10640563B2, “Anti-B7-H3 antibodies and antibody drug conjugates” (AbbVie Inc., priority 2016, dated 2020)

Key:
NCI-H146 xenograft = experiment: NCI-H146 small cell lung cancer xenograft efficacy; type: in vivo, mouse; conditions: NCI-H146 xenograft in SCID/bg mice; 10 mg/kg IP QDx1
Experimental: Antibody MSL109 (an IgG1 antibody that binds to cytomegalovirus (CMV) glycoprotein H) was used as a control, both as a naked antibody and as an ADC (conjugated to the same synthon (CZ) as the chAb3, chAb18, and chAb13 antibodies). MSL109 is an isotype matched non-targeting control. The methods of this xenograft assay are described below.
NCI-H146 cells, NCI-1650 cells, and EBC-1 cells were obtained from the American Type Culture Collection (ATCC, Manassas, Va.). The cells were cultured as monolayers in RPMI-1640 (NCI-H146, NCI-H1650) or MEM (EBC-1) culture media (Invitrogen, Carlsbad, Calif.) that was supplemented with 10% Fetal Bovine Serum (FBS, Hyclone, Logan, Utah). To generate xenografts, 5×10^6 viable cells were inoculated subcutaneously into the right flank of immune deficient female SCID/bg mice (Charles River Laboratories, Wilmington, Mass.) respectively. The injection volume was 0.2 mL and composed of a 1:1 mixture of S MEM and Matrigel (BD, Franklin Lakes, N.J.). Tumors were size matched at approximately 200 mm^3. Antibodies and conjugates were formulated in 0.9% sodium chloride for injection and injected intraperitoneally. […] Therapy began within 24 hours after size matching of the tumors. Mice weighed approximately 22 g at the onset of therapy. Tumor volume was estimated two to three times weekly. Measurements of the length (L) and width (W) of the tumor were taken via electronic caliper and the volume was calculated according to the following equation: V=L×W^2/2. Mice were euthanized when tumor volume reached 3,000 mm3 or skin ulcerations occurred. Eight mice were housed per cage. Food and water were available ad libitum. Mice were acclimated to the animal facilities for a period of at least one week prior to commencement of experiments. Animals were tested in the light phase of a 12-hour light: 12-hour dark schedule (lights on at 06:00 hours). As described above, human IgG control antibody (MSL109) was used as a negative control agent.
To refer to efficacy of therapeutic agents, parameters of amplitude (TGImax), durability (TGD) of therapeutic response are used. TGImax is the maximum tumor growth inhibition during the experiment. Tumor growth inhibition is calculated by 100*(1−Tv/Cv) where Tv and Cv are the mean tumor volumes of the treated and control groups, respectively. TGD or tumor growth delay is the extended time of a treated tumor needed to reach a volume of 1 cm^3 relative to the control group. TGD is calculated by 100*(Tt/Ct−1) where Tt and Ct are the median time periods to reach 1 cm^3 of the treated and control groups, respectively.

[1] = system: HCC38 (breast cancer) cells; experiment: In vitro cell viability assay (CellTiter-Glo), HCC38; type: cell-based, human; conditions: ADC with synthon CZ; HCC38 breast cancer cells; viability after 5 days; read-out: Cytotoxicity (HCC38 cell line IC50nM)
Experimental: (§1) Nine anti-B7-H3 chimeric antibodies were conjugated to the Bcl-xL inhibiting (Bcl-xLi) synthon CZ (Example 2.1) using conjugation Method A described below. The resulting ADCs (anti-B7-H3 antibodies conjugated to synthon CZ) were tested for binding to cell surface human B7-H3 by FACS (as described in Example 6) and for cell cytotoxicity in cell lines expressing B7-H3. […] Table 6 provides cell surface binding and cytotoxicity activity of anti-B7-H3 chimera ADCs against breast cancer cell HCC38 expressing human B7-H3.
The tumor cell lines HCC38 (breast cancer), NCI-H1650 (NSCLC) and NCI-H847 (small cell lung cancer cell line) were obtained from American Type Culture Collection (ATCC). Cells were grown in 96-well culture plates using recommended growth media overnight at a density of 5×10^3 (HCC38) or 20×10^3 (NCI-H847) or 40×10^3 (NCI-H1650) per well. The following day, treatments were added in fresh media to triplicate wells. Cellular viability was determined 5 days later using the CellTiter-Glo Luminescent Cell Viability Assay kit (Promega), as directed in the manufacturer's protocol. Cell viability was assessed as percentage of control untreated cells.

[2] = Size exclusion chromatography, % aggregate of ADC; type: physicochemical; conditions: ADC with synthon CZ, conjugation Method A
Experimental: The DAR and percentage aggregation of ADCs synthesized were determined by LC-MS and size exclusion chromatography (SEC), respectively.
Size exclusion chromatography was performed using a Shodex KW802.5 column in 0.2 M potassium phosphate pH 6.2 with 0.25 mM potassium chloride and 15% IPA at a flow rate of 0.75 ml/min. The peak area absorbance at 280 nm was determined for each of the high molecular weight and monomeric eluents by integration of the area under the curve. The % aggregate fraction of the conjugate sample was determined by dividing the peak area absorbance at 280 nm for the high molecular weight eluent by the sum of the peak area absorbances at […] of the high molecular weight and monomeric eluents multiplied by 100%.

[3] = Observation after conjugation to synthon (Method A); type: physicochemical; conditions: after conjugation to Bcl-xLi synthon CZ
Experimental: as §1
A solution of Bond-Breaker™ tris(2-carboxyethyl)phosphine (TCEP) solution (10 mM, 0.017 mL) was added to a solution of antibody (10 mg/mL, 1 mL) preheated to 37° C. The reaction mixture was kept at 37° C. for 1 hour. The solution of reduced antibody was added to a solution of synthon (3.3 mM, 0.160 mL in DMSO) and gently mixed for 30 minutes. The reaction solution was loaded onto a desalting column (PD10, washed with Dulbecco's phosphate-buffered saline [DPBS] 3× before use), followed by DPBS (3 mL). The purified ADC solution was filtered through a 0.2 micron, low protein-binding 13 mm syringe-filter and stored at 4° C.

HCC38 cell line = experiment: Cell cytotoxicity of ADCs in HCC38 cell line; type: cell-based; conditions: CZ conjugates
Experimental: The humanization of chAb18 generated 10 variants (described above in Table 9) that retained binding to human and cyno B7-H3 as assessed by FACS (the method of which is described above in Example 6). These variants were further characterized for binding by SPR and were successfully conjugated to the Bcl-xL inhibitor synthon CZ using Method A (described above) and assessed for cell cytotoxicity as described in Example 7. The parental chAb18 from which the variants were derived was also tested as a comparator. All humanized variants had similar binding properties as assessed by biacore, and retained binding activity to cell surface expressed as conjugates with the CZ synthon. The cytotoxicity of all of the variants as CZ synthons were similar to the chAb18 from which they were derived.
Humanized chAb18 variants were conjugated to the CZ synthon and tested for cytotoxicity in HCC38 cell line.

Molecule | TGD (%) (NCI-H146 xenograft) | TGImax (%) (NCI-H146 xenograft) | IC50 [1] [nM] | % agg by SEC [2] [%] | Conjugation observation [3] | IC50 (HCC38 cell line; Table 14) [nM] | IC50 (HCC38 cell line; Table 10) [nM]
MSL109: an IgG1 antibody that binds to cytomegalovirus (CMV) glycoprotein H; isotype matched non-targeting control [reference compound] | 0 | 0 | – | – | – | – | –
chAb13-CZ (conjugate) VH: DVQLQESGPDLVKPSQSLSLTCTVTGYSITSGYSWHWIRQFPGNKLEWMGYIHSSGSTNYNPSLKSRISINRDTSKNQFFLQLNSVTTEDTATYYCAGYDDYFEYWGQGTTLTVSS VL: DIVMTQSQKFMSTSVGDRVSVTCKASQNVGFNVAWYQQKPGQSPKALIYSASYRYSGVPDRFTGSGSGTDFTLTISNVQSEDLAEYFCQQYNSYPFTFGSGTKLEIK | 104 | 81 | 0.18 | 8.3 | Clear | – | –
chAb3-CZ (conjugate, drug conjugate; Synthetic chAb3 VH amino acid sequence; Synthetic chAb3 VL amino acid sequence) VH: QVQLQQPGAELVKPGASVKLSCKASGYTFSSYWMHWVKQRPGQGLEWIGLIHPDSGSTNYNEMFKNKATLTVDRSSSTAYVQLSSLTSEDSAVYFCAGGGRLYFDYWGQGTTLTVSS VL: DVVMTQTPLSLPVSLGDQASISCRSSQSLVHSNGDTYLRWYLQKPGQSPKLLIYKVSNRFSGVPDRFSGSGSGTDFTLKITRVEAEDLGVYFCSQSTHVPYTFGGGTKLEIK | 109 | 87 | 0.17 | 6.3 | Clear | 0.17 | –
chAb18-CZ (conjugate) VH: QVQLQQSAAELARPGASVKMSCKASGYSFTSYTIHWVKQRPGQGLEWIGYINPNSRNTDYNQKFKDETTLTADRSSSTAYMQLISLTSEDSAVYYCARYSGSTPYWYFDVWGAGTTVTVSS VL: QIVLTQSPAILSASPGEKVTMTCRASSSVSYMNWYQQKPGSSPKPWIYATSNLASGVPARFSVSVSGTSHSLTISRVEAEDAATYYCQQWSSNPLTFGAGTKLELK | 100 | 90 | 0.28 | 4.3 | Clear | – | 0.28
